Measured values as given in patent US20160272693A1 (ZEALAND PHARMA A S, published 2016).
*1 amine or outer side, *2 acyl side, *3 side chain or, on linkers, in order; H or OH if unused. Bridges are numbered along the chain shown (N, C = ends). [ ]: non-standard residue; d: D form. The star is where a group is joined. C20 diacid = O=C(O)CCCCCCCCCCCCCCCCCCC(=O)*; γGlu = O=C(O)[C@H](CCC(=O)[*:2])N[*:1]; Hyp = O=C(O)[C@@H]1C[C@@H](O)CN1; NMeI = CC[C@H](C)[C@H](NC)C(=O)O; Aad = N[C@@H](CCCC(=O)O)C(=O)O; Sar = CNCC(=O)O

T1: human amylin receptor 3 (hAMYR3), hCTR2 co-expressed with human receptor activity modifying protein 3 (hRAMP3) (human, UniProt P30988 25-474; O60896 24-148)
T1 sequence (looked up) 1: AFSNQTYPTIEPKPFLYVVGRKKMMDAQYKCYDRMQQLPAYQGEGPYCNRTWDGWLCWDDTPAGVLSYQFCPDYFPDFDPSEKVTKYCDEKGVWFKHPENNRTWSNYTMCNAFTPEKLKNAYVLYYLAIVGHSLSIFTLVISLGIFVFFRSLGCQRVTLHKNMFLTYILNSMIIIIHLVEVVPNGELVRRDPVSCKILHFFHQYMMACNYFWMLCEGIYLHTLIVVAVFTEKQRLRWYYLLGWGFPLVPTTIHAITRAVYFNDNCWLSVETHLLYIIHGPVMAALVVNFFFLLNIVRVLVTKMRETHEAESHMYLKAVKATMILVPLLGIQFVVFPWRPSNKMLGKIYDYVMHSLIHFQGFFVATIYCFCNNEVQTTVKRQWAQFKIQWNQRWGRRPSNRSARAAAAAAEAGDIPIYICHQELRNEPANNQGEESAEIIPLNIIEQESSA
T1 sequence (looked up) 2: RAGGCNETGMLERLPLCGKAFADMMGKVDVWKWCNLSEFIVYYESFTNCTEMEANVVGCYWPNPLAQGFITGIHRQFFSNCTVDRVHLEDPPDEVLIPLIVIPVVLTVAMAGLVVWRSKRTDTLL

B1: [19CD]-isoGlu-R-C( )-NTAT-C( )-ATQRLAHFLQRSSF-Gly(Me)-A-Ile(Me)-LSSTEVGSSTP-NH2 (Compd. 85) (peptide)
peptide: {C20 diacid}-[γGlu]RCNTATCATQRLAHFLQRSSF[Sar]A[NMeI]LSSTEVGSSTP-NH2
modifications: disulfide 3-8
SMILES: CC[C@H](C)[C@@H](C(=O)N[C@@H](CC(C)C)C(=O)N[C@@H](CO)C(=O)N[C@@H](CO)C(=O)N[C@H](C(=O)N[C@@H](CCC(=O)O)C(=O)N[C@H](C(=O)NCC(=O)N[C@@H](CO)C(=O)N[C@@H](CO)C(=O)N[C@H](C(=O)N1CCC[C@H]1C(N)=O)[C@@H](C)O)C(C)C)[C@@H](C)O)N(C)C(=O)[C@H](C)NC(=O)CN(C)C(=O)[C@H](Cc1ccccc1)NC(=O)[C@H](CO)NC(=O)[C@H](CO)NC(=O)[C@H](CCCNC(=N)N)NC(=O)[C@H](CCC(N)=O)NC(=O)[C@H](CC(C)C)NC(=O)[C@H](Cc1ccccc1)NC(=O)[C@H](Cc1c[nH]cn1)NC(=O)[C@H](C)NC(=O)[C@H](CC(C)C)NC(=O)[C@H](CCCNC(=N)N)NC(=O)[C@H](CCC(N)=O)NC(=O)[C@@H](NC(=O)[C@H](C)NC(=O)[C@@H]1CSSC[C@H](NC(=O)[C@H](CCCNC(=N)N)NC(=O)CC[C@H](NC(=O)CCCCCCCCCCCCCCCCCCC(=O)O)C(=O)O)C(=O)N[C@@H](CC(N)=O)C(=O)N[C@@H]([C@@H](C)O)C(=O)N[C@@H](C)C(=O)N[C@@H]([C@@H](C)O)C(=O)N1)[C@@H](C)O
B2: [19CD]-isoGlu-R-C( )-NTAT-C( )-ATQRLA-Aad-FLQRSSF-Gly(Me)-A-Ile(Me)-LSSTEVGSST-Hyp-NH2 (Compd. 87) (peptide)
peptide: {C20 diacid-γGlu}-RCNTATCATQRLA[Aad]FLQRSSF[Sar]A[NMeI]LSSTEVGSST[Hyp]-NH2
modifications: disulfide 2-7
SMILES: CC[C@H](C)[C@@H](C(=O)N[C@@H](CC(C)C)C(=O)N[C@@H](CO)C(=O)N[C@@H](CO)C(=O)N[C@H](C(=O)N[C@@H](CCC(=O)O)C(=O)N[C@H](C(=O)NCC(=O)N[C@@H](CO)C(=O)N[C@@H](CO)C(=O)N[C@H](C(=O)N1C[C@H](O)C[C@H]1C(N)=O)[C@@H](C)O)C(C)C)[C@@H](C)O)N(C)C(=O)[C@H](C)NC(=O)CN(C)C(=O)[C@H](Cc1ccccc1)NC(=O)[C@H](CO)NC(=O)[C@H](CO)NC(=O)[C@H](CCCNC(=N)N)NC(=O)[C@H](CCC(N)=O)NC(=O)[C@H](CC(C)C)NC(=O)[C@H](Cc1ccccc1)NC(=O)[C@H](CCCC(=O)O)NC(=O)[C@H](C)NC(=O)[C@H](CC(C)C)NC(=O)[C@H](CCCNC(=N)N)NC(=O)[C@H](CCC(N)=O)NC(=O)[C@@H](NC(=O)[C@H](C)NC(=O)[C@@H]1CSSC[C@H](NC(=O)[C@H](CCCNC(=N)N)NC(=O)CC[C@H](NC(=O)CCCCCCCCCCCCCCCCCCC(=O)O)C(=O)O)C(=O)N[C@@H](CC(N)=O)C(=O)N[C@@H]([C@@H](C)O)C(=O)N[C@@H](C)C(=O)N[C@@H]([C@@H](C)O)C(=O)N1)[C@@H](C)O
B3: [19CD]-isoGlu-R-C( )-NTAT-C( )-ATQRLAHFLERSSF-Gly(Me)-A-Ile(Me)-LSSTEVGSSTP-NH2 (Compd. 84) (peptide)
peptide: {C20 diacid-γGlu}-RCNTATCATQRLAHFLERSSF[Sar]A[NMeI]LSSTEVGSSTP-NH2
modifications: disulfide 2-7
SMILES: CC[C@H](C)[C@@H](C(=O)N[C@@H](CC(C)C)C(=O)N[C@@H](CO)C(=O)N[C@@H](CO)C(=O)N[C@H](C(=O)N[C@@H](CCC(=O)O)C(=O)N[C@H](C(=O)NCC(=O)N[C@@H](CO)C(=O)N[C@@H](CO)C(=O)N[C@H](C(=O)N1CCC[C@H]1C(N)=O)[C@@H](C)O)C(C)C)[C@@H](C)O)N(C)C(=O)[C@H](C)NC(=O)CN(C)C(=O)[C@H](Cc1ccccc1)NC(=O)[C@H](CO)NC(=O)[C@H](CO)NC(=O)[C@H](CCCNC(=N)N)NC(=O)[C@H](CCC(=O)O)NC(=O)[C@H](CC(C)C)NC(=O)[C@H](Cc1ccccc1)NC(=O)[C@H](Cc1c[nH]cn1)NC(=O)[C@H](C)NC(=O)[C@H](CC(C)C)NC(=O)[C@H](CCCNC(=N)N)NC(=O)[C@H](CCC(N)=O)NC(=O)[C@@H](NC(=O)[C@H](C)NC(=O)[C@@H]1CSSC[C@H](NC(=O)[C@H](CCCNC(=N)N)NC(=O)CC[C@H](NC(=O)CCCCCCCCCCCCCCCCCCC(=O)O)C(=O)O)C(=O)N[C@@H](CC(N)=O)C(=O)N[C@@H]([C@@H](C)O)C(=O)N[C@@H](C)C(=O)N[C@@H]([C@@H](C)O)C(=O)N1)[C@@H](C)O
B4: [19CD]-isoGlu-R-C( )-QTAT-C( )-ATDRLAHFLQRSSF-Gly(Me)-A-Ile(Me)-LSSTEVGSGT-Hyp-NH2 (Compd. 91) (peptide)
peptide: {C20 diacid}-[γGlu]RCQTATCATDRLAHFLQRSSF[Sar]A[NMeI]LSSTEVGSGT[Hyp]-NH2
modifications: disulfide 3-8
SMILES: CC[C@H](C)[C@@H](C(=O)N[C@@H](CC(C)C)C(=O)N[C@@H](CO)C(=O)N[C@@H](CO)C(=O)N[C@H](C(=O)N[C@@H](CCC(=O)O)C(=O)N[C@H](C(=O)NCC(=O)N[C@@H](CO)C(=O)NCC(=O)N[C@H](C(=O)N1C[C@H](O)C[C@H]1C(N)=O)[C@@H](C)O)C(C)C)[C@@H](C)O)N(C)C(=O)[C@H](C)NC(=O)CN(C)C(=O)[C@H](Cc1ccccc1)NC(=O)[C@H](CO)NC(=O)[C@H](CO)NC(=O)[C@H](CCCNC(=N)N)NC(=O)[C@H](CCC(N)=O)NC(=O)[C@H](CC(C)C)NC(=O)[C@H](Cc1ccccc1)NC(=O)[C@H](Cc1c[nH]cn1)NC(=O)[C@H](C)NC(=O)[C@H](CC(C)C)NC(=O)[C@H](CCCNC(=N)N)NC(=O)[C@H](CC(=O)O)NC(=O)[C@@H](NC(=O)[C@H](C)NC(=O)[C@@H]1CSSC[C@H](NC(=O)[C@H](CCCNC(=N)N)NC(=O)CC[C@H](NC(=O)CCCCCCCCCCCCCCCCCCC(=O)O)C(=O)O)C(=O)N[C@@H](CCC(N)=O)C(=O)N[C@@H]([C@@H](C)O)C(=O)N[C@@H](C)C(=O)N[C@@H]([C@@H](C)O)C(=O)N1)[C@@H](C)O
B5: [19CD]-isoGlu-R-C( )-NTAT-C( )-ATQRLA-Aad-FLQRSSF-Gly(Me)-A-Ile(Me)-LSSTEVGSNT-Hyp-NH2 (Compd. 86) (peptide)
peptide: {C20 diacid-γGlu}-RCNTATCATQRLA[Aad]FLQRSSF[Sar]A[NMeI]LSSTEVGSNT[Hyp]-NH2
modifications: disulfide 2-7
SMILES: CC[C@H](C)[C@@H](C(=O)N[C@@H](CC(C)C)C(=O)N[C@@H](CO)C(=O)N[C@@H](CO)C(=O)N[C@H](C(=O)N[C@@H](CCC(=O)O)C(=O)N[C@H](C(=O)NCC(=O)N[C@@H](CO)C(=O)N[C@@H](CC(N)=O)C(=O)N[C@H](C(=O)N1C[C@H](O)C[C@H]1C(N)=O)[C@@H](C)O)C(C)C)[C@@H](C)O)N(C)C(=O)[C@H](C)NC(=O)CN(C)C(=O)[C@H](Cc1ccccc1)NC(=O)[C@H](CO)NC(=O)[C@H](CO)NC(=O)[C@H](CCCNC(=N)N)NC(=O)[C@H](CCC(N)=O)NC(=O)[C@H](CC(C)C)NC(=O)[C@H](Cc1ccccc1)NC(=O)[C@H](CCCC(=O)O)NC(=O)[C@H](C)NC(=O)[C@H](CC(C)C)NC(=O)[C@H](CCCNC(=N)N)NC(=O)[C@H](CCC(N)=O)NC(=O)[C@@H](NC(=O)[C@H](C)NC(=O)[C@@H]1CSSC[C@H](NC(=O)[C@H](CCCNC(=N)N)NC(=O)CC[C@H](NC(=O)CCCCCCCCCCCCCCCCCCC(=O)O)C(=O)O)C(=O)N[C@@H](CC(N)=O)C(=O)N[C@@H]([C@@H](C)O)C(=O)N[C@@H](C)C(=O)N[C@@H]([C@@H](C)O)C(=O)N1)[C@@H](C)O

Biological target: T1, human amylin receptor 3 (hAMYR3), hCTR2 …
Test: cell-based or functional assay

| Binder | hAMYR3 EC50 (nM); cAMP induction [nM] |
| --- | --- |
| B1 | 0.14 |
| {C20 diacid}-[γGlu]RCGTATCATERLAHFLTRSSF[Sar]A[NMeI]LSSTEVGSST[Hyp]-NH2 (disulfide 3-8) [[19CD]-isoGlu-R-C( )-GTAT-C( )-ATERLAHFLTRSSF-Gly(Me)-A-Ile(Me)-LSSTEVGSST-Hyp-NH2 (Compd. 9)] | 0.29 |
| B2 | 0.13 |
| B3 | 0.54 |
| B4 | 0.17 |
| {C20 diacid-γGlu}-RCQTATCATERLAHFLQRSSF[Sar]A[NMeI]LSSTEVGSGT[Hyp]-NH2 (disulfide 2-7) [[19CD]-isoGlu-R-C( )-QTAT-C( )-ATERLAHFLQRSSF-Gly(Me)-A-Ile(Me)-LSSTEVGSGT-Hyp-NH2 (Compd. 90)] | 0.24 |
| B5 | 0.15 |
